Publication PMC4927293

Biological target: heat-aggregated GFP

- apparent KM for aggregated GFP from initial rates of GFP disaggregation by Hsp104 D484K (0.06 uM, 10 mM ATP): fold gain of affinity with Ssa1 (2 uM) and Ydj1 (0.5 uM): > 25 fold
- apparent KM for aggregated GFP from initial rates of GFP disaggregation by Hsp104 D484K (0.06 uM, 10 mM ATP): fold increase of the apparent KM with 1 mM ADP: 2 fold
Substance: Hsp104 D484K (from UniProt P31539 1-908) (enzyme)
